Test results reported in patent US20260250398A1 (ANTLERA THERAPEUTICS, published 2026).

What was measured:
[1] = biological target: T1, LRP6 (low-density lipoprotein receptor-related protein 6) (UniProt O75581 20-1370, limits assumed); assay: cell-based or functional assay
T1 sequence (looked up): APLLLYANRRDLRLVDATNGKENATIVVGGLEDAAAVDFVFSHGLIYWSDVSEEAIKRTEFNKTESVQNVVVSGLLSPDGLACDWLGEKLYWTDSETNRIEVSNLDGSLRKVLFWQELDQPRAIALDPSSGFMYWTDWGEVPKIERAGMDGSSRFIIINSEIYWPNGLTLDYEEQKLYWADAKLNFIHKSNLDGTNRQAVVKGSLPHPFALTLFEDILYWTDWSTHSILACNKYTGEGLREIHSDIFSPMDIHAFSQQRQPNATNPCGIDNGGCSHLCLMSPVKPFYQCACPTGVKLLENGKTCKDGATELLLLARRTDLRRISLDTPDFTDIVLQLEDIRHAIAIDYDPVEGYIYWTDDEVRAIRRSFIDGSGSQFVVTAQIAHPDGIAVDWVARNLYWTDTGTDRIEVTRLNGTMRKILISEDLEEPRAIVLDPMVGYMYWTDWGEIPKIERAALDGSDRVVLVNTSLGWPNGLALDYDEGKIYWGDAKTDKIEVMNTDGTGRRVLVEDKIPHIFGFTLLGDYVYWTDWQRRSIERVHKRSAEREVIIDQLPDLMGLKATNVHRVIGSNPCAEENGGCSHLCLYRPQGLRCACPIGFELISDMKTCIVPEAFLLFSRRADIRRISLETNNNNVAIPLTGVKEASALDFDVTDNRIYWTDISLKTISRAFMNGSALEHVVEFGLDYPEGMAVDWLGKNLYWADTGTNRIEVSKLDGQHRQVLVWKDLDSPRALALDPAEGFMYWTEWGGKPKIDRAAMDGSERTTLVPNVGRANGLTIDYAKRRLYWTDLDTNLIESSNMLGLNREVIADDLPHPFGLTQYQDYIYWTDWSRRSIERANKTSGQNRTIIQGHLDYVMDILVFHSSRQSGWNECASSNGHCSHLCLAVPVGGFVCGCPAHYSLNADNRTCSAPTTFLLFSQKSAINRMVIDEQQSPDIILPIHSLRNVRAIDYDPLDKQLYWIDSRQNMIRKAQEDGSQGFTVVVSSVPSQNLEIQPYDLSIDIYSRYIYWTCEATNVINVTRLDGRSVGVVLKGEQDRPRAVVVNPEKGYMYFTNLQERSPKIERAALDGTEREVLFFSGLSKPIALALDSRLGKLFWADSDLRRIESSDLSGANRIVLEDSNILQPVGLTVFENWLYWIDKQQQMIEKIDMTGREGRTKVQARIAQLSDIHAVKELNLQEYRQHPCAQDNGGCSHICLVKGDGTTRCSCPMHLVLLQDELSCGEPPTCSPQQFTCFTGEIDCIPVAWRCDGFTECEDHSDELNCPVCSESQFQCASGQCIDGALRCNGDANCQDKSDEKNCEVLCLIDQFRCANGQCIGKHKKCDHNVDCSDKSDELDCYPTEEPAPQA

[2] = biological target: T1, LRP6 (low-density lipoprotein …); assay: cell-based or functional assay; remark: listed apart in the source

TOPFLASH Maximal Signal (% Wnt3a maxima) [1]: 50 % Wnt3a maxima | TOPFLASH % Wnt Maxima [2]: 49 % Wnt Maxima
B1: ANT-1 (LRP Diabody-Fc-FZD Fab; paratopes 2540, 2542; 5016) (bispecific antibody)
heavy 1: MNLLLILTFVAAAVAEFEVQLVESGGGLVQPGGSLRLSCAASGFNISSYYIHWVRQAPGKGLEWVASIYSSYGYTSYADSVKGRFTISADTSKNTAYLQMNSLRAEDTAVYYCARTVRGSKKPYFSGWAMDYWGQGTLVTVSSGGGGSDIQMTQSPSSLSASVGDRVTITCRASQSVSSAVAWYQQKPGKAPKLLIYSASSLYSGVPSRFSGSRSGTDFTLTISSLQPEDFATYYCQQYYFLITFGQGTKVEIKLEDKTHTKVEPKSSDKTHNCPPCPAPELLGGPSVFLFPPKPKDTLMISRTPEVTCVVVDVSHEDPEVKFNWYVDGVEVHNAKTKPREEQYNSTYRVVSVLTVLHQDWLNGKEYKCKVSNKALPAPIEKTISKAKGQPREPQVYTLPPIRELMTSNQVSLSCAVKGFYPSDIAVEWESNGQPENNYKTTPPVLDSDGSFFLVSKLTVDKSRWQQGNVFSCSVMHEALHNHYTQKSLSLSPGKSGSETPGTSESATPESGGGEVQLVESGGGLVQPGGSLRLSCAASGFNIHSSSIHWVRQAPGKGLEWVAATYSSFGSITYADSVKGRFTISADTSKNTAYLQMNSLRAEDTAVYYCARYHHPFGYALDYWGQGTLVTVSSASTKGPSVFPLAPSSKSTSGGTAALGCLVKDYFPEPVTVSWNSGALTSGVHTFPAVLQSSGLYSLSSVVTVPSSSLGTQTYICNVNHKPSNTKVDKKVEPKSCDKTHT
heavy 2: MNLLLILTFVAAAVAEFEVQLVESGGGLVQPGGSLRLSCAASGFNISYSSIHWVRQAPGKGLEWVASISPYYGYTYYADSVKGRFTISADTSKNTAYLQMNSLRAEDTAVYYCARSSYFPWFSAMDYWGQGTLVTVSSGGGGSDIQMTQSPSSLSASVGDRVTITCRASQSVSSAVAWYQQKPGKAPKLLIYSASSLYSGVPSRFSGSRSGTDFTLTISSLQPEDFATYYCQQYYWPITFGQGTKVEIKLEDKTHTKVEPKTSDKTHTCPPCPAPELLGGPSVFLFPPKPKDTLMISRTPEVTCVVVDVSHEDPEVKFNWYVDGVEVHNAKTKPREEQYNSTYRVVSVLTVLHQDWLNGKEYKCKVSNKALPAPIEKTISKAKGQPREPMVFDLPPSREEMTKNQVSLWCMVKGFYPSDIAVEWESNGQPENNYKTTPPVLDSDGSFFLYSKLTVDKSRWQQGNVFSCSVMHEALHNHYTQKSLSLSPGKSGSETPGTSESATPESGGGEVQLVESGGGLVQPGGSLRLSCAASGFNIHSSSIHWVRQAPGKGLEWVAATYSSFGSITYADSVKGRFTISADTSKNTAYLQMNSLRAEDTAVYYCARYHHPFGYALDYWGQGTLVTVSSASTKGPSVFPLAPSSKSTSGGTAALGCLVKDYFPEPVTVSWNSGALTSGVHTFPAVLQSSGLYSLSSVVTVPSSSLGTQTYICNVNHKPSNTKVDKKVEPKSCDKTHT
light: DIQMTQSPSSLSASVGDRVTITCRASQSVSSAVAWYQQKPGKAPKLLIYSASSLYSGVPSRFSGSRSGTDFTLTISSLQPEDFATYYCQQGVYLFTFGQGTKVEIKRTVAAPSVFIFPPSDEQLKSGTASVVCLLNNFYPREAKVQWKVDNALQSGNSQESVTEQDSKDSTYSLSSTLTLSKADYEKHKVYACEVTHQGLSSPVTKSFNRGEC
